The DeepSol protein solubility set

Assay: soluble on expression in E. coli; label from the status in PepcDB or PDB records

MSDSQEQLISSENTEVDKQAEEDRKLRRLNRRKALALERSPLPVPKLGRVLLSANSTIDLTNEDDDPSNKWFKKTFNAEKIPKLAKSPEEAKLFAVPRKISKNAPKSLLTSETLKKKLQASMSAKRRKEQEQRRKMYEEDNEHLKAGSDEEEEEDVVFKKKKGKKPVNEEEYKSEDDEDYEPENSGEEDSDEKNNGRADDEMSVNLLNDSFTYDVFNNVKRSGPGSTVSNFDSRSEADVVEKNGVVQLPTMTEITGGSNDILNLCPGSFGVSQSAGFPDTLQMLIEEDTTERKINLPQNSTSVSSDKPRLEESESEDEDDVGVKRRLPAVKNHRVLDSDEEDDVIEETLPSQDVFGSGTLEDSETIKEICEKSGEFTEKIETVLEEKTELKRVVLSDGEDSDEEAEEAEEEGDDEEEPEEDDIESENDEAETEGVEAPDPNFDDEDDELAILKRLQHQEYKQKIKKRTLFDDEASLSGDDVGSDLEDEEGMENVYEAEEGDADDVPDNDTIRRQNHKLLLKQENDKEQRELAKLQDRLLADGDLGGVETNRQFRFKLREEVQIQMGDDVDGNDGDGEDDEPEEDEQKKKERAEMIKFKYEHAEELMLLDEPKQGDDMFARAGKLFKKTEKTVIEFSEETMFKPRLSKPSLLSKTTLAVTFQEVLNGPGGAAKQMYVQSFEKPTPLSTGHISSPSSRLSTGKRLLKSPESSASAKRVRSSKLSSLE
soluble on expression in E. coli: not soluble

MSLNNPYIKMIGAHGTALGDIYGHVTLENFDNTDIYGTEINLVGQINIGETDFNLYGQVFDKSMPVWGETNTLLGLSWDKNYDNTYVQLAFAAHIVNATYKAFDSNFDEQGFNGGYAYLNISHDLSLFDQDFKFVWWQEFYFGRNEQYLELAGDMEDFGFNGQLRANWIINNNWSVGVSYRYAENNLGKKGYHDAFFYSVQYKFEGHHHHHH
soluble on expression in E. coli: not soluble

MGSDKIHHHHHHMSDDLGSELQLLYLFVHLVNAGSFSQAAKELDMPIATVSRKLAKLEEKLDKQLFMRSTRKLRLTEEGLALFQRYQSVIAQFDELSGVGSDKPEGTLRIAAPISIISIIFIRALNEFGRLYPDIRLHISQSNELVDLIDKGIDVAIVGGAQPDSSWVSSTLGELDYCLFATPEYLAQAPKLTHPNDLEAHQLIKVWPLFNWHLKHPNGESFYFNGPTKLTLTDLHGAIESALDHGGILYGPELFVKQQIKEDRLKVLLPEWVGEQRRISILYHQRSQQPLKVRVFIEFMQSKAPELFSMA
soluble on expression in E. coli: not soluble

MSLPITLDKKLPAVDILKSENIFVMDDKRAIHQDIRPMSILILNLMPTKVATETQLLRLLANTPLQLSVDFLYMTSHHSKTTQAEHMKTFYKTFKDIKDNYYDGLIITGAPVETMPFEKVDYWEELCQVFQWSKTHVYSTLHLCWGAQAGLYYRYSVDKVQMTDKLSGIYLQKVNEQLSPLMRGFDDCFLSPHSRYTEVLLKDINNKTNLEILASGEKVGLSILASRDMREVYSFGHLEYDRETLDNEYKRDLKAGKSPKIPENYYQDDDVTTHPIMRWNLAAATFFSNWINYAVYQETPYRLEELEKDISFYGYLEGHHHHHH
soluble on expression in E. coli: soluble

MGSDKIHHHHHHMSATEKRRYEVLRAIVADYIASQEPVGSKSLLERHKLNVSSATIRNDMSVLESDGFIVQEHASSGRVPTERGYRLFVDSIHDIKPLSLAERRAILGFLEGGVDLEDVLRRSVQLLSQLTHQAAVVQLPTLKTARVKHCEVVPLSPMRLLLVLITDTGRVDQRNVELEEPLAAEEVNVLRDLLNGALGEKTLTAASDALEELAQQAPTDIRDAMRRCCDVLVNTLVDQPSDRLILAGTSNLTRLSRETSASLPMVLEALEEQVVMLKLLSNVTDLDQVRVHIGGENEDIELRSATVITTGYGSQGSALGGLGVVGPTYMDYSGTISKVSAVAKYVGRVLAGE
soluble on expression in E. coli: not soluble

MKPKTRLYYAERLEPVLAWLAARPDADADLHRLAELACLSPYYFHRVYRALLGETVHATVQRMRLARASVALAQGKGSLRQVADRAGYASEAAFSRAFSAQYGLPPGRYRAKRSSPFNPEELRMYPLTMEDFPGLSLAILAHQGDYQEIGNTFDRLALLAAIQDLVRDGMQPPPRYIGVYYDDPAQVARDALRSRAGVSLPPGTAAPAPFEPLDIPAMRCAVLEYTGPYSEIEAPYNWLFSQWLPASGQEPGDFPMFEEYLNDPKTTPAAQLKTRIYLPLA
soluble on expression in E. coli: not soluble

GPGSMIIWAVGTTNKAKLDSVDIAVRMCFPSYQHDVRPVAVLSIVRAQPISAEESQQGAQHRAHEALSLVPEAHYGVGLEGGLEKISDRWFECGWMYVIERSTGRCGIGSSARFEMSQKLMSKILDEGKELAEVMDEMTGETDVRSGQGAMGVLTAGYLNRAESYSHGLIFALAPFLSDHKYWD
soluble on expression in E. coli: not soluble

MDAVQDPAAGSLSRSRIVPPQVPAEYSLRPAIRNLLDRNPHSRVLMFSAPAGFGKTCALAALARERTVADQAVAWLSLAEEDDDPARFCRQLIEALGEAVPQLGDDAQTYLQNTMRVPVVAVIESLLGDLDRYARPLLLVLDDLHLVSNPDIFTGLNRLVQYAPPGLVLALGTRSQPALSLATWRAKGLLLEIGLEELRLGFEETREYLERSGLYLDEPCLKALYGQTEGWVVGVHLVSLWLRQQPQVQEMALLDGDKQAVSAYLLAAVFERLPGDLQEALLALGVASQLSGDLANALTGRQ
soluble on expression in E. coli: not soluble

MSDSPKNAPRITDEADVVLIGAGIMSSTLGAMLRQLEPSWTQIVFERLDGPAQESSSPWNNAGTGHSALCELNYTPEVKGKVEIAKAVGINEKFQVSRQFWSHLVEEGVLSDPKEFINPVPHVSFGQGADQVAYIKARYEALKDHPLFQGMTYADDEATFTEKLPLMAKGRDFSDPVAISWIDEGTDINYGAQTKQYLDAAEVEGTEIRYGHEVKSIKADGAKWIVTVKNVHTGDTKTIKANFVFVGAGGYALDLLRSAGIPQVKGFAGFPVSGLWLRCTNEELIEQHAAKVYGKASVGAPPMSVPHLDTRVIEGEKGLLFGPYGGWTPKFLKEGSYLDLFKSIRPDNIPSYLGVAAQEFDLTKYLVTEVLKDQDKRMDALREYMPEAQNGDWETIVAGQRVQVIKPAGFPKFGSLEFGTTLINNSEGTIAGLLGASPGASIAPSAMIELLERCFGDRMIEWGDKLKDMIPSYGKKLASEPALFEQQWARTQKTLKLEEALEHHHHHH
soluble on expression in E. coli: not soluble

MGSDKIHHHHHHMQQHPVVSREEWLVKRRALLAREKEAIHQRDAITAERLALPWVKVDTRYVFDTASGKKTLADLFDGRSQLMIYHFMLGPGWAAGCPGCSLVADHLGGTLAHLNHHDVTLIAVSRAPLPEIEAYRQRMGWQFPWASSFGTTFNHDFRVSFTPDELASGAVDYNYTSTQSAQANDELPGLSAFYKDAAGNVYHTYSTYARGLEDLIGTFLILDRAPKGRNESGPMEWVRRHDEYGDAPKANACYEG
soluble on expression in E. coli: not soluble

MGSDKIHHHHHHMNDFTTEILKTLANKGDLNELFRVHLEKAVNTLLKTELTAFLDYEKYDRIGFNTGNSRNGSYDRTVKTEYGELHLQIPRDRNGEFKQQTVPAYRRTNDTLEETVIHLFRKGITMSEIADLIEKMYGHHYTPQTMSNITKSFTEEVTAFKGRELHDRYAAIYMDATYIPLKRKTVAKEAIHIAVGIRPDGSKEVLSYAIAPTESITIWEEILLDLQERGLKNVLLFITDGLKGMVGAISRFYPKARFQHCCVHVSRNISHKVRVDDRKEVCDDFKMVYQTSSKKVALEARGAFAEKWKTSYPKVVESILSNDHLLTFYDFPLAIRKSIYSTNLIESFNKQIKKYSHRKEQFQNEESMERFLVSSFDTYNQKFLGRSHKGFQQAEGELEQMLSQLIEN
soluble on expression in E. coli: not soluble

SRIKMKKARKILAEKRAAAPVVSVPCIPPHRLSKITNRLTIQRKSQFMQRLHSYWTLKRQSRNGVPLLRRLQTHLQSQRNCDQVGRDSEDKNWALKEQLKSWQRLRHDLERARLLVELIRKREKLKRETIKVQQIAMEMQLT
soluble on expression in E. coli: not soluble

MGSDKIHHHHHHMNSDIIVADFWKNNEEILTDFDKDSFCESWTENEMWSIEFKVAQTPKNAHCYSFLDYESSVYFRGQEFVVKQLSHDAVGKTLSKDIRAPHIYYTCQDGRQDDAITGSFTLEQCLTHIFKTDNRGFSWEIIDPSNILEKVQQENFGNNNYLTLIDQLLDDYGVVVIPDNRHLVFKPREIYGAKTENFIRYKYNTDEASFDIDTLSLKTKIKGYGKVDSNGNNYFSPITYTSPEVEKWGIRWQEPVSDERYTVAGNMQRRLKLELQDYPATTGSVILKNDYECEKGDYVLFIYEPLGIDYDVQIVAYKKYPFTIKAPEITLSNNKKSIVSIMAQLAKVLKGAK
soluble on expression in E. coli: not soluble

MAHHHHHHMCLVKLYKRCFVRVPPHCVTVVYETRRNSILASSMEEANNELPQVSHFRPLMYIVSLLLYRSKKLVIVPPTSFFSTFTLPCSVLDESGDGEVVDCTVEDIHVTDGSVRMVMTIRYCIPINELERYLAAVGPTAPNERIALAAAGAARARGAELSVGLIINKSKRDTAFLEPFRAHLSSKLMSESCVKVLDVVVEAAEIADRSLGG
soluble on expression in E. coli: not soluble

MSLKVREEKLRTIIEWSEKNEDVRVLLLTSSLVNPLALVDEFSDLDIEFVFEDNTNYISDKSWTLKFGNPIAMIEEDESCFNHKHAMKMLLYEDGVKVDFKLYSKSKFIKETQEKELPEDWDIGYKILIDKDGITKQMLKPTYQISIIKKPSEKEFQNLINDFWWDTTYVAKCLVRDEIFYAKFMSETVIRTEYLIPLIEWHIASEHNWNITTNKYGRLFKKYLNQEMWAKTEQTFSGSDIKENWTALFSMTDLVSEIGTELSKKLEYKYPDKLENDIRKYLAGLKPKTEGHHHHHH
soluble on expression in E. coli: soluble

MGSDKIHHHHHHMRFEEAGCHGEFIQADLTKLPFSEPKFDVIFSEGVLHHTDSTEKAIKYLTTLLIPGGHFLFYVYKTKAPIREFTDDYVRNQLINMDDSQAWNELRSLTLLGKILGDLNIEVEIPEPILLLGIPAGRINIQRLFYWYICKAFYNPEWTIDEMNHVNFDWYRPLNCHRHTPEEIMTWCNQAGLKIERMNVQEAGITVVAKKE
soluble on expression in E. coli: not soluble

MSLDVALAPPGPLASGGLRVTALGGISEIGRNMTIFEHLGRLLIIDCGVLFPGHDEPGVDLILPDLRHIEDRLDDIEALVLTHAHEDHIGAIPFLLKLRSDIPVVGSKFTLALVAAKCREHRIKPVFVEVVGGQSSRHGVFECEYFAVNHSIPDALTIAVYTGAGTVLHTGDIKLDQLPLDGRPTDLPGMSRLGDAGVDLFLCDSTNAEIPGVGPSESEVGPTLHRLIQGADGRVIVACFASNVDRVQQVIDAAVALGRRVSFVGRSMVRNMSIARDLGFLRVDDSHMIDIAAAEMMAPEQVVLITTGTQGEPMSALSRMSRGEHQSITLTSGDLVVLSSSLIPGNEEAVYGVIDALAKIGARVVTNAQARVHVSGHAYAGELLFLYNGVRPRQVMPVHGTEGHHHHHH
soluble on expression in E. coli: soluble

MSNRKLSPDKTQPIYAPNNAFLDECVRVEIINILPLKVLRPAVKESTKYHQILASIQDVGLVEPPAVTPAPGTSGQYFLLDGHLRIEVLKDLGELKVDCLVATDDDTYSYNKRTNRLSAVQSNKMIVRAMERGVSAERLGKALGLSPQTIRQRFRLLNGICAEVVALLGDTDCPANVFNLLRQMKPLRQIEAAELMIGNKNLSVLLAKALLAATPPDQLVMIKKPSQDHQVSAESMARLERELAALQMQIKTVEEDYGPDVLHLTVIKGYLTKLLANAAVVRWLARHQPEYLKEFQSIAELTELPWADNGPEDDLQSTTAEG
soluble on expression in E. coli: not soluble

MSTIHTPLTYNEINGKPFGLDYELAKQFADYLGVKLKVTVRQNISQLFDDLDNGNADLLAAGLVYNSERVKNYQPGPTYYSVSQQLVYKVGQYRPRTLGNLTAEQLTVAPGHVVVNDLQTLKETKFPELSWKVDDKKGSAELMEDVIEGKLDYTIADSVAISLFQRVHPELAVALDITDEQPVTWFSPLDGDNTLSAALLDFFNEMNEDGTLARIEEKYLGHGDDFDYVDTRTFLRAVDAVLPQLKPLFEKYAEEIDWRLLAAIAYQESHWDAQATSPTGVRGMMMLTKNTAQSLGITDRTDAEQSISGGVRYLQDMMSKVPESVPENERIWFALAAYNMGYAHMLDARALTAKTKGNPDSWADVKQRLPLLSQKPYYSKLTYGYARGHEAYAYVENIRKYQISLVGYLQEKEKQATEAAMQLAQDYPAVSPTELGKEKFPFLSFLSQSSSNYLTHSPSLLFSRKGSEEKQNLEHHHHHH
soluble on expression in E. coli: soluble
